Data taken from the nanobody polyreactivity screen of Harvey et al. (2022).

Assay: yeast display, Sf9 membrane polyspecificity reagent, FACS + sequencing; frameworks hold sequencing errors
In short: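 In a synthetic yeast display library (Saccharomyces cerevisiae BJ5465), nanobody expression was induced with galactose for 36–48 hours. FACS gates were set low and high (top ~1%) using anti-HA fluorescence for expression and streptavidin fluorescence for binding of the Sf9 membrane reagent. Each polyreactivity label is drawn from the gate of origin.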

Row | Sequence | polyreactivity (PSR sort gate)
1 | QGQLVESGGGLVQAGGILRLRCAACGSTILVYAMGWYRHAPGQERELVAFIDNGGDTYYADSVKGRFTISRDNAKNTVYLQMYSLKPEDTEVYYCADDLSYLGYWEYDYWGQGTQVTVSS | low polyreactivity
2 | QGQLVESGGGLVQAGGSLRLRSAASGRTFNYYAMGWYRQAHGKERELVATSSWSGVSTRYADSVKGRFTISRDNAKNTVYLEMNSLNPEDTAVYYCNAGYSKRSFYSAYGYWGEGTQVTVSS | high polyreactivity
3 | QGQLVESGGGLVQAGGSLRLSCAASGFSFQYYAMGWSRHAHGKERELVAAINRGGGTHYADSVKGRFTISRDNAKNTVYFQMHSLKPEDTAVYYCNKVYYWPGSRPSRYEYWGQGTQVTVSS | low polyreactivity
4 | QGQLVESGGGLVQAGGSLRLSCAASGFSYGFYAMGWYRQAPGKERELVASNSNGDSTNYADSVKGRFTISRDNAKNTVYLQMNSLKPEDTAVYYCATYGGYNPSPLYWGQGTQVTVSS | high polyreactivity
5 | QGQLVESGGGLVQAGGSLRLSCAASGFTFKFYAMGWYRQAPGKEREFVAAISGSGGSTYYAHSVKGRFTISRDNAKNTVYLQMNSLKPEDTAVYYCAAEVPGKPYGRSRYSFRHDYWGQGTQVTVSS | low polyreactivity
6 | QGQLVESGGGLVQAGGSLRLSCAASGGTFSDNVMGWYRQAPGKERELVAANSRSGGSTYYADSVKGRNTISRDNAKNTLSLQMNSLKPEDTAVYYCNAIGSKRGAYKAAFNYWGQGTQVTVSS | high polyreactivity
7 | QGQLVESGGGLVQAGGSLRLSCAASGITFYSYAMGWYRQAPGKERELVAAITLTGGTTYYADSVKGRFTISRDNAKNTVYLQMNSLKPEDTAVYYCNSDYGGGVDGTYKYYSEYDYWGQGTQVTVSS | low polyreactivity
8 | QGQLVESGGGLVQAGGSLRLSCAASGITYYKYVMAWYIQAPGKERELVAAISRSSGSTYYADSVKGRFTISRDNAKNTVYLQMNSLKPEDTAVYYCARDQGKLVVPYDYWGQGTQVTVSS | high polyreactivity
9 | QGQLVESGGGLVQAGGSLRLSCAASGLIFYKYAMGWYRQAPGKERVLVAAISSSGGSTYYGDSVKGRFTISRDTAKNTVYFQMNSLKPEDTADSSCAARTNRRGYHDWGQGTQVTVSS | high polyreactivity
10 | QGQLVESGGGLVQAGGSLRLSCAASGRIFYTNAMGGYRQARGKERELVAGINYSGGNTYADSVKGRFTISRDNAKNTVYLQMNSLKPEDTAVYYCAARGWSHYGYGDNYRHGYWGQGTQVTVSS | high polyreactivity
11 | QGQLVESGGGLVQAGGSLRLSCAASGRTFDSNAMGWYRQAPGKERELFAAISQRGGRTYYADSVKGRFTISRDNAKNTVYFQMNSLKQVYTAFYYCNKVGRRKLDYWGQGTQVTVSS | high polyreactivity
12 | QGQLVESGGGLVQAGGSLRLSCAASGRTFYTYAMGWYSPAAGKERELVAAMTRSGGRTYYADSVKVRFTISRDNAKNTVYLQMNSLKPEDTAVYYCGAKTFYWWADYDYWGQGTQVTVSS | high polyreactivity
13 | QGQLVESGGGLVQAGGSLRLSCAASGRTFYVNAMGWYRQAPGKERELVAGISFSDGSTYYADSVKGRFTISRDNAKNSVYLQMNSLKPEDTAVYYCATVGAFDIYYGYGYWVQGTQVTVSS | low polyreactivity
14 | QGQLVESGGGLVQAGGSLRLSCAASGRTLQYNAMGWYRPAPGKEWELVAAITSNGGSTYYADSVKGRFPISRDNAKNTVYLQMNSQKPEDTAVYDCAKAYRYVDRGYRLLRYGYWGQGNQVTVSS | high polyreactivity
15 | QGQLVESGGGLVQAGGSLRLSCAASGSIFGGYGMGWYRQAPGKERELVAAITSGSSTYYADSVKGRFTISRDNAKNTVYLQMNSLKPEDTAVYYCAARPYPHSAYEGDYWGRGTQVTVSS | low polyreactivity
16 | QGQLVESGGGLVQAGGSLRLSCAASGSIFGQYVMGWYRQAPGKERELVAAISGTGGSTYYADSVKGRFTISRDNAKNTVYLQMNSLKPEDTAVYYCAVVHRSSYRESGLLWRYYWGQGTQVTVSS | high polyreactivity
17 | QGQLVESGGGLVQAGGSLRLSCAASGSIFRGYAMGWYRQAPGKERELVAAISWSGGSTYYADSVKGRFTISRDNAKNTVYLQMNSLKPEDTAVYYCAADRDVFGYWYYYWGQGTQVTVSS | high polyreactivity
18 | QGQLVESGGGLVQAGGSLRLSCAASGSIFSKNALGWYRQAPGRERELVAAITSGASTNYADSVKGRFTISRDNAKNTVYLQMNSLKPEDTAGYYCAAKRNGFWYGYWGQGTQVTVSS | low polyreactivity
19 | QGQLVESGGGLVQAGGSLRLSCAASGSIFYWYAMGWYRQAPGKERELVAVISTGTSTKYADSVKGRFTISRDNAKNTVYLQMNSLKPEDTAVYYCNADPVGPKYDYWGQGTQVTVSS | low polyreactivity
20 | QGQLVESGGGLVQAGGSLRLSCAASGSIVWYNAMGWYRQAPGKERELVAAINWSGGSTFYADSVKGRFTISRDNAKNTVYLQMYSLKPEDTAVYYCAADDWYTGYDYWGQGTQVTVSS | high polyreactivity
21 | QGQLVESGGGLVQAGGSLRLSCAASGSSFPYYAMGWYRQAPGKERELVASINQSDGTTYYADSVKGRFSISRDNAKNTVYLQMNSLKPEDTAVYYCAADTTLQAFIRYSPIGSYDSWGQGTQVTVSS | low polyreactivity
22 | QGQLVESGGGLVQAGGSLRLSCAASGSTFANYDMAWYRQAPGKERELVAAITSRGGSTYYADSVKGRFTISRDNAKNTVYLQMNSLKPEDTAVYYCAAVTRNQGSFRYYFWGQGTQVTVSS | high polyreactivity

Row | Sequence | polyreactivity (PSR sort gate)
23 | QGQLVESGGGLVQAGGSLRLSCAASGSTFRYNTMGWYRQAPGKERELVAAISSGGGTHYADSVKGRFTISRDNAKNTVYLQMNSLKPEDTAVYYCAAQSRYRYQFYSGLEYDYWGQGTQVTVSS | low polyreactivity
24 | QGQLVESGGGLVQAGGSLRLSCAASGSTFSDYAKGWYRQAPGKERELVAGITGGGGTYYADSVKGRFTISRDNAKNTVYLQMNSLKPEDTAVYYCAAGRRHGFGYWGQGTQVTVSS | low polyreactivity
25 | QGQLVESGGGLVQAGGSLRLSCAASGSTFWLNAMGWYRHAPGKERELVAVITWSGDGTYYADSVKWRFTISRDNAKNTVYVQMNSLKPEDTAVYYCAKGFERYPWYDYWGQGTQVTVSS | low polyreactivity
26 | QGQLVESGGGLVQAGGSLRLSCAASGSTFWRYAMGWYRQAPGKERELVAAISRSGGSTYYADSVKGRFTISRDNAKNTVYLQMHSLKPEDTAFYYCAARYPTPYRKLGSWGQGTQVSVSS | high polyreactivity
27 | QGQLVESGGGLVQAGGSLRLSCAASGSTLVKYAMGTNRQAPGKERELVAAISWSGGRTDYADSVKGRFTSSRDNAKNTVYLQMNSLKPEDTAVYYCAARSTRFYTPGYYYWGQGTQVTVSS | high polyreactivity
28 | QGQLVESGGGLVQAGGSLRLSCAASGSTSGKNAMGWYRQAPGQERELVAVITYSGSRTYYADSVKGRFTISRDNAKNTVYLQMNSLKPEDTAVYYCATRGLKTYQAYDYWGQGTQVTVSS | high polyreactivity
29 | QGQLVESGGGLVQAGGSLRLSCSASGLIFYRYTMGWYRQAPGKEREVVAAISSGGRTYSADSVKGRFTISRDNAKNTVYLQMNSLKPEDTAVYYCATRVYSVHAPSAVPIGGYYWGQGTQVTVSS | high polyreactivity
30 | QGQLVESGGGLVQAGGSLRLSSAASGRIYLTNAMGWYRPAPGKERELVAAITSGGSTYYADSVKGRFTISRDNAKNTVYLQMNSLKPEDTAVYYCNADTDRYWPYEYDYWGQGTQVTVSS | low polyreactivity
31 | QGQLVESGGGLVQAGGSLRVSCAASGYTFDSYAMGLYRQAPGKERELFAAITNGGSTYYADSVKGRFTISRDNAKKTVYLQLNSLKPEDTAVYYCATDDDQLDYLYDYWGPGTQVTVSS | low polyreactivity
32 | QGQLVESGGGLVQAGGSLSLSCAASGFTFRYYTMGWYIQAPGKERALVASISRRGGSTYYADSVKGRFTISRDNAMNTVYLQMHSLKPEGTAVYYCNPLSQVFASRAPKFDYWGQGTQVTVSS | high polyreactivity
33 | QGQLVESGGGLVQAGGSRRLSCAASGYSIDNNAMGWYRQAPGKEREVVASITNSAGSTSYADSVKGRFTISRDTAKNTVYLQMNSLKPEDTAVCYCSAKRYHYFFQYSRSGAYGYWGHGTQVTVSS | high polyreactivity
34 | QGQLVESGGGLVQARGSLRLSCAASGRIFMTYAMAWYIQAPGKERELVAAIRSPSGTTYYADSVKGRFTISRDNAKNTVYLQMNSLKPEDTAVYYCAAGGKYSSYYWGQGTQVTVSS | high polyreactivity
35 | QGQLVESGGGVVQAGGSLRLSSAASRRIFYSYPLGWYRPAPGKERELVAAISSSGGITYYADSVKGRFTISRDNAKNTGSLELNSLKPEDTAVYYCAARRRYKSGYWGQGTQVTVSS | high polyreactivity
36 | QGQLVESGRGLVQAGGSLSLSCAASGSTFFIYAMGWYRQAPGKERELVAAINRSGGRTYYADSVKGRFTISRYTAQNTVYLQMNSLKPEDTAVYYCAAYLGPYVRFYYWGQGTQGTVSS | high polyreactivity
37 | QGQLVESVGGLVQAGGSLRLSCAASGSIFGWYVMGWYRQAPGQERELVAAISSVGSTYYADSVKGRFTISLDNAKNTVYLQMNSLKAEDTAVYYCAKLRYPYLFWDDSEYWGQGTQVTVSS | low polyreactivity
38 | QGQLVETGGGLGQAGGSLRLSCAASGIIFYYYAMGWYRQAPGKERELVAAITGTGSRTYYADSVKGRFTISRDNAKNTVYIQMNSLKPEDTAVYYCYARSFATCSKVPARGYWGQGTQVTVSS | high polyreactivity
39 | QGQLVVSGGGLVQAGGSLRLSCAASGRTFYWNAMGWSIQAPGKERELFASINGGGSTYYADSVKGRFTISRDNAKNTVYLQMYSLKPEDTAVYYCNAESYEFHRAWGDYDDWGHGTQVTVSS | low polyreactivity
40 | QGQRVESGGGLVQAGGSLRLSCAGSGSTCVGYTMGWYRQAPGKERELVAAITSSDGSTYYADSVKGRFTISRDNAKNTVYLQMNSQKPEDTAVYYCAQTTRYPRGYGYWGQGTQVTVSS | low polyreactivity
41 | QIQLVESGGGLVQAGGILRISCAASGRTFGSNTMGWSRQAPGKERELVAAISGTGTSTYYADSVKGRFTISRDNAKNTVYLQMNILKPEDTAVFYCAAGWYKYLFQPHDYWGQGTQVTVSS | low polyreactivity
42 | QIQLVESGGGLVQAGGSLRLSCAASGFTFYWYAMGWYRQAPGKEREFVAAIDQSGGSTYYADSVKGRFTISRDNAKNTVYLQMNSLKPEDTAVYYCAARYILWDGDSWTEFDYWGQGTQVTVSS | low polyreactivity
43 | QLHLVESGGGLVQAGGSLRLSCAASGIIFWYNDMGWYRQAPGKESELVAAISTGGSTNYADSVKGRFTISRDNAKNTVYLQMNSLKPEDTAVYYCAGDWHRAYGGYDYWGEGTQVTVSS | low polyreactivity
